B1: LINE1-full (parent)
chain: UACGUAGGUGGUUUUCCCCUGAUAGUGCUAAGGGGGCCUGGAAGUUUGGACUGGGCAGAGCUCAACACAGCGUGGCAAAGUGGCUGUGGCUAGACUGCCUCUCUGGAUUCCUCGUCACUCAGCAGGGCAUCUCUGAGAGAAAUGCC

Variants of: B1
Assay: self-cleavage, relative activity (ratio to wild type); higher = more cleavage; in vitro, sequencing; the parent is a self-cleaving ribozyme

Variant	self-cleavage
A42G A67G	0.88
U39C U87A	0.06
U39C U112A	1.45
A42U C113A	0.98
A42G A79G	1.37
A42G A79U	1.57
A42U A121C	2.42
G41A U108C	1.23
G40A U132C	1.03
A42U G55U	0.1
A43G A140U	1.19
A43G C146U	1.69
A43G G106A	1.36
G41C U104G	1.58
U39C U91C	0.33
A42U C66A	0.03
A43G A79G	0.97
A43G A79U	1.8
A43G C128U	0.79
A43C A65G	0
A42G A78G	1.49
A42G U130C	1.57
A42G U130A	1.47
A42U G89U	0.04

Variant	self-cleavage
A43G G80A	1.48
G40A A138G	1.49
A42G C131A	1.23
G40U A65G	0.04
A42G U85C	0.38
A42G U85G	0.26
G41A A117G	1.53
A42G C101U	1.75
A42G C51U	1.28
A42G G80A	2.61
A43C C99U	0.98
A43C C113A	1.1
A42U U100C	1.32
A42U U100A	0.62
U39G C123A	0.91
A43G G82A	1.31
G40U A43G	1.11
A42G C99A	0.94
A42G A124U	1.35
A42G G127A	1.04
G40A G88A	0.04
A42U U119C	1.73
G41U G127A	0.69
U39C U100G	0.59

Variant	self-cleavage
U39C U100A	0.53
U39C U100C	2.36
A42U A69C	0.02
A42G A69G	0.54
G41U A129G	1.03
G41U A129C	1.02
G41A U96C	0.11
A42G U112A	2.01
U39G A79G	1.28
G40U G139A	1.17
A43G C90A	0.07
A42C C145U	1.53
A42G U115A	1.24
A42U U104C	1.76
G40A U87A	0.06
U39G U46C	1.36
G41A C95U	0.12
A43G A59U	0.82
A42G A50G	0.91
A42G C111U	1.37
A42G G125A	1.25
G40A U85G	0.04
A43G G70A	0.11
A43G G70U	0.15

Variant	self-cleavage
A43G A67U	0.06
G40U U132C	2.4
G40U U132A	1.31
G41U U73C	2.76
G41U U132A	1.35
G40A A65G	0.04
A43G C76U	1.66
G41U U134C	1.21
A42G C98U	0.53
G40U A67G	0.21
G41U A117U	1.24
G40U G58A	0.02
A42G C95U	0.2
A43G G86A	0.06
A43G G86U	0.03
A42C C110A	1.68
A42U A43U	0.84
A42U A43G	1.51
U39G U45C	1.82
A42G G55A	0.29
U39G A121G	1.23
A42G U62A	0.06
G40A A78G	0.77
A43C A136U	1.64

Variant	self-cleavage
G40A A59U	0.54
A43G C113U	1.12
A42G U46C	1.49
G40U U52A	0.99
A43G A64G	0.32
A43G A64U	0.4
A42G U108C	1.55
A42U G72U	0.62
A42G A140U	1.2
A42G A140C	0.93
A42G A140G	1.46
A42U U132A	1.02
A42U A107G	1.25
A42G C56U	0.26
A42G C103A	1.49
A42U A57U	0.04
A42U A57G	0.63
G40U A79G	1.09
A42G G58A	0
A42U A79G	1.16
A42G A43U	1.56
A43G G75A	1.06
A42U U112A	1.15
A42U U112C	1.08

Variant	self-cleavage
A42U C103A	0.91
A42U A124U	1.09
A42G U81C	1.55
A42G U81A	2.11
G41A U130A	1.57
A42U C128G	0.87
G41A A43C	0.25
G41A A43G	0.44
U39C U108A	1.22
A42G U73A	1.52
G40U U130C	1.32
A43G G97A	0.04
G40A A129U	0.46
G40A A129G	1.42
A43G A92U	0.92
A42U U62C	0.04
A42U A142G	0.88
U39G U52A	1.16
A42U U109A	1.39
G40A U119A	0.94
A43C A77U	1.39
U39C U109A	1.15
U39C U104G	0.93
U39C U104A	0.89

Variant	self-cleavage
A43G A117C	1.85
A42C G54A	0.13
G41A A138G	1.25
G40A A57G	0.4
A42G A129C	2.1
A42G A129U	1.75
A43C A94G	0.66
G40A A142G	0.79
A42G A117U	1.33
A43G C120U	1.52
G40A U62C	0.04
U39C U115C	1.37
U39C U115A	1.05
A42C A67G	0.52
A42G C68U	0.18
A42C U119C	0
G40A A107G	1.17
A42U A94U	0.15
A42U A94G	0.24
A42C U91C	0.4
U39G A136G	1.65
A43C A78U	2.11
A42G A77U	1.02
A42G A77G	2.66

Variant	self-cleavage
A42G C133A	1.59
G41A A78U	2.63
G41A A78G	0.58
G40A U100C	1.59
A42C A142G	1.23
A43G C111U	0.93
A42U U81C	1.28
A42G U100A	1.28
A42G U100C	1.54
G41C A138G	0.97
A43G A124U	1.38
A43G A124C	1.96
A43G A124G	1.05
G41A C68U	0.23
A43G G93A	0.1
A42U U73C	1.56
A42U U73G	0.95
A42U A64G	0.14
A43G G74A	1.17
A42G G53A	1.36
U39C U130G	1.75
U39C U130C	2.49
U39G A140G	1.31
A43G G105U	1.65

Variant	self-cleavage
A42G G48A	0.85
A42G U52A	1.52
A42G U52C	1.17
U39C U119G	1.36
U39C U119A	1.08
U39C U119C	1.38
A42G U119A	0.95
G40A A117U	1.43
A43G A142C	1
A43C A138G	1.02
G40A A136U	1.04
A42G U102A	1.38
A43G C103U	1.25
A42G A138G	1.34
A42G A138U	1.6
A43C U81A	1.77
A42U U45C	1.4
G41A U134C	1.15
G41A U134A	0.89
G41A U134G	0.98
U39C U134G	1.39
U39C U134C	1.5
U39C U134A	0.86
G40U U47A	1.86

Variant	self-cleavage
A43G A57G	0.78
A43G A57C	0.09
A43G A57U	0.21
A42G G72U	1.38
A42G G72A	1.11
A42C U102C	1.13
A42G C145U	1.26
A43G C118U	1.19
A42G A121C	0.84
A42G G144U	1.65
A42G C120A	1.54
A42G C120U	0.67
A43G C116U	1.22
G41U A64G	0.16
U39G U96C	0.11
G41A G60U	0.04
G40U A117G	0.97
A42G U134G	1.68
A42G U134A	0.93
A43G C84U	0.16
U39G A142G	0.77
A43G G48U	1.28
G41C A59G	0.19
G40A A50U	0.84

Variant	self-cleavage
G41U C98U	0.12
G40A U143C	1.26
A43C C66U	0.04
G40A U109C	0.88
A43G A50U	0.64
G40U U108C	1.59
A43G C99U	1.1
G40A U52C	1.23
G40A U52A	1.25
G41A A79G	1
G41A A79U	1.28
A42C C95U	0.04
G41U A65G	0.03
A42G A92G	0.15
A42G A92U	0.72
A42G G114A	1.48
U39C U85C	0.18
U39C U85A	0.05
A42U U102C	0.89
A42U U102G	0.09
G41C U45C	0.68
A42U U143C	0.94
A43G A136G	1.5
A43G A136U	1.5

Variant	self-cleavage
A43G A136C	1.18
A42G C84A	0.15
G40A G60U	0.02
U39G U73A	1.88
G40A U81A	1.71
A42G A65G	0.14
A42G A65C	0.07
U39G U102C	1.34
A43C U100A	1.41
A42G A64U	0.52
A43C G97A	0.09
A43G A138G	1.34
A42C U100C	1.25
A42G C146U	1.18
A42G C146G	0.45
A42G U45G	0.1
A42G U45A	1.4
G41A U143G	1.11
G41A U143C	0.95
A43G A69C	0.13
A42C A107U	1.04
G40A U73A	0.81
G40U U100A	0.89
G40U U100C	0.46

Variant	self-cleavage
G41A U104C	1.53
A42G U132C	1.48
A42G U132A	1.8
A42C A117G	0.77
U39G U62C	0.1
A42U A141U	0.81
A42G U96A	0.03
U39G A65C	0.04
A43G A78U	1.86
A43G A78G	1.2
A42G U104G	0.8
A42U U52A	1.2
G40A A141G	1.06
A42U A138G	1.28
A43G A94G	0.36
U39C U102C	0.99
A42G U47A	1.19
G40U U85G	0.28
U39G U115A	1.31
A42C U73C	0.75
A42C A92G	0.15
U39G U81A	1.62
G41A U87C	0.26
A43G A107C	1.17

Variant	self-cleavage
A43G A107U	0.7
A43G A107G	1.5
G41U U100G	0.78
A42G A57G	0.95
A42G A57U	0.14
U39G A77G	1.53
A42U A77G	1.72
A42U A77U	0.83
G40U A59G	0.05
G40U A59C	0.82
A42G U109G	0.66
A42G U109A	1.43
A42G U109C	1.24
G40U	1
G40A	1.16
G40C	1.12
A42C U134C	1.31
A42U A129G	1.34
A42U A129U	0.86
G40U U134C	1.6
G41C U100C	2.63
A43G A77G	2.07
